The nature of the series: soluble on expression in E. coli; label from the status in PepcDB or PDB records.
Consider “SLTPDSTAGSLHIDCPTGLAGDMLLAALLDLGVPLEVIKAPLARLGLKDMVRLDVEETRSGGLRGRRLNVVGLEPDPPHRHWAEIRDRLQNSSLEPKLLQTVLAVFTALAEAEATVHAQTPESVHFHEVGAIDALVDVVGVCAAIHHLAPHRISCAPPPAGHGSVTTAHGLLPVPVPAVLELARAHQVPLRHDPSLPEGELTTPTGLALVSVLAERFTAPPLFTPSAIGIGLGHRRLDRPNLVRLCLGQGESATLDLEARWQPLVVQEAWIDDASAEDIAWLLDRLRQAGALDVACQSLLMKKGRAGVAVTALVSTEQAPQLRRTWFEAGPSIGLRERQQGRWLLPRRAGTLSTPWGVLTAKQVRRPDGHCTVKPEADALQRLSQASGCSVADLRAAAQAASFESEEPWTW”, for which the “soluble on expression in E. coli” value is recorded as “not soluble”.
For “MGSDKIHHHHHHMNTYAQESKLRLKTKIGADGRCVIEDNFFTPPFKLMAPFYPKDDLAEIMLLAVSPGMMRGDAQDVQLNIGPNCKLRITSQSFEKIHNTEDGFASRDMHIVVGENAFLDFAPFPLIPFENAHFKGNTTISLRSSSQLLYSEIIVAGRVARNELFKFNRLHTKISILQDEKPIYYDNTILDPKTTDLNNMCMFDGYTHYLNLVLVNCPIELSGVRECIEESEGVDGAVSETASSHLCVKALAKGSEPLLHLREKIARLVTQTTTQKV” the value was “not soluble”.
For “MAHHHHHHMLTTFNIIWKREQAENVNNEKQCKTVSESLGGNAESSESPSSSISEFDQLVNDVEDLLEEQQINETEKLYKISKCPNEKFNKKNKLSITDLSAQLWCEQQLELILTTGKKRETEAMRLGIERHEVLEKADHLIIDVEVNTREESLGYRLLNTIILLEQLYEYKKAREVWVFGVIRGYVLRGIIDELRIEYDHVSRREYLIISDTKTRKEKREPSFAQKKSSAIQVQTYCLLLQHLKSGKADFKKLFEIYECDPTFEFTAIDLIKYKNLENLCKVVNCLFVRLPKIKEEMEIVYEHQGVEFSRNHIPYFYHSTLFTINILLDYWDGKRSSDVVENSDKWKCKFCDFVRNCVRCPLDG” the value was “not soluble”; for “MMDCRLGCGACCIAPSISSPIPGMPNGKPAGVRCVQLNEDNLCQLFGRPERPKVCHDFKACPVVCGKTNQQALANLTELERLTLEHHHHHH”, “not soluble”; for “EVQLVESGGGLVQPGRSLRLSCAASGFTFDDYAMHWVRQAPGKGLEWVSGISWNSGSIGYADSVKGRFTISRDNAKNSLYLQMNSLRAEDTAVYYCARGRGFHYYYYGMDIWGQGTTVTVSSASTKGPSVFPLAPSSKSTSGGTAALGCLVKDYFPEPVTVSWNSGALTSGVHTFPAVLQSSGLYSLSSVVTVPSSSLGTQTYICNVNHKPSNTKVDKKVEPK”, “soluble”.
The value for “MGSDKIHHHHHHMFDVCLFKKMNILYATCFLDVSGVTRLNYDILARLAGKNNIYVCETASDGRLTSKLENHFRDSFGEPFKLFRYPLQDRYRRFLEYLDSNAIDLVFNTHSLWVYEHIAKLKKDRSNLKVVDSLHVLEPYCFRGGYPDISANRYVHPFIDKSIVISEHLLSYIKRSYSVDPGKFIIIRNGVDTTRFKKDSSLKGIFRNELGVPANFPLIGYIGRFSRQKRPDVFLDVAKHLLGKLGEVYFYMAGDGDLLDKSKKLADSLGISNRVSFVAPRDDIHIVLNSTDMLVLTSSYEGAPLTILEALATGVPVVASDVGAISEYVGTPYVVQRQGRGAEVDQFAEAILRGLNDNYPSIFDREIFSLDYVADSYARVFYDTAVRTSTTQEN” was “not soluble”; that for “MVSVIKPEMKMRYYMDGSVNGHEFTIEGEGTGRPYEGHQEMTLRVTMAKGGPMPFAFDLVSHVFCYGHRPFTKYPEEIPDYFKQAFPEGLSWERSLEFEDGGSASVSAHISLRGNTFYHKSKFTGVNFPADGPIMQNQSVDWEPSTEKITASDGVLKGDVTMYLKLEGGGNHKCQFKTTYKAAKKILKMPGSHYISHRLVRKTEGNITELVEDAVAHSLEHHHHHH” was “soluble”; that for “MVITKHFAIHGKSYRRKLIKYILNPEKTNNLALVSDYGMKNFLDFPSYEEMVQMYHENFISNDTLYDFRHDRMEENQRKIHAHHIIQSFSPEDHITPEQINRIGYETVKELTGGKFRFIVATHVDKDHLHNHIIINSVDSNSDKKLKWDYKVERNLRMISDRFSKIAGAKIIENRYSHQRYEVYRKTNHKYELKQRLYFLMEHSRDFEDFKKNAPLLHVEMDFRHKHATFFITDSTMKQVVRGKQLNRKQPYTEEFFKNYFAKREIESLMEFLLLKVENMDDLLQKAKLFGLTINPKQKHVSFQFAGVEVKETELDQKNLYDVEFFQDYFKNRKDWQAPETEDFVQLYQEEKLSKEKELPSDEKFWESYQEFKSNRDAVHEFEVELSLNQIEKVVDDGIYVKVKFGIRQEGLIFVPNMQLDMEEDKVKVFIRETSSYYVYHKDAAEKNCYMKGRTLIRQFSYENQTIPLRRKATVDMIKEKIAEVDALIELEVENQSYVTIKDELVHELAASELRINELQERMSTLNQVAEYLLASVESKQEMKLNLSKLNITENISANIVEKKLKSLGNQLELERGRYEKMVVRLDKFINRLNTGLSKGDGIDFQK” was “not soluble”.
On to “MGSDKIHHHHHHMFLILLEVIVTSCPLLSSSFARLNPIPLDDAVIRTFMFIILHCKDKSIANPGAIIYKPFYPKFRVMERNELVNFVEGILKRIGFRTMKLEFRGGCFDLVATRQLLLLFIKALANIDKFSEEQAEDLKKLAKLFKASPLLVGLRSKNAELEDGVVYERFGIYAITPGTLYSMFAEGEPPLIIAERGGFYVRIDGKKLKALREEHGYSITELAGILGISRKSLQRYEKGESVVSLEVALRLEEVFDEPLVKPIDVLRARLKDVTLTSEPDNILEKEVFEKLRKLGMSVVKIKTAPFNAITKEEEDDIELLTGIDERKTGRTLKRAELVSQMAEVVGSDGVFVVKKARMEVVRNVPILPKKLLEEIKDADELLELIRDLKFKS”, for which the “soluble on expression in E. coli” value is recorded as “not soluble”.
The value for “MKIAIVTDSTAYLPERIKDHPNLFVIPIPVILDGKIYNEGIDIEADEYYALLNNSKEFPTTSQPALGEVLELYKSIAEQGYDTIISIHLSSGISGFVHTLHGLTDEIPGVALYPYDSKITSMPMGHMVEAALDLTEEKASLEEIFAKLDLIRDNTYAYLIVEDLNNLVRGGRLTNGAALIAGLLKIKPILTFEDGKIVLFEKIRSTKKAFARAEKIIGERNAGIEAPVKLYVIHANNRIVAEKEQAKLQKLYPNAEIEIGHFGPVIGTHLGEKAIGLAISAQ” was “not soluble”.
The value for “SDKDSQGLLDSSLMASGTASRSEDEESLAGQKRASSQALGTIPKRRSSSRFIKRKKFDDELVESSLAKSSTRVKGAGGVESGRCSGSEPSSSEKKKVSKAPSTPVPPSPAPTPGLTKRVKKSKQPLQVTKDLGRWKPADDLLLINAVLQTNDLTSVHLGVKFSCRFTLREVQERWYALLYDPVISKLACQAMRQLHPEAIAAIQSKALFSKAEEQLLSKVGSSSQPTLETFQDLLHTHPDAFYLARTAKALQAHWQLMKQYYLLEDQTVQPLPKGDQVLNFSDAEDLIDDSKLKDMRDEVLEHELTVADRRQKREIRQLEQELHKWQVLVDSITGMGSPDFDNQTLAVLRGRMVRYLMRSREITLGRATKDNQIDVDLSLEGPAWKISRKQGVIKLKNNGDFFIANEGRRPIYIDGRPVLCGSKWRLSNNSVVEIASLRFVFLINQDLIALIRAEAAKITPQ” was “soluble”; that for “MNILQNENLIIESSSFGAELTKIFSKKYDKNILWDGNKKYWGRQSPILFPIVGKLFDNETIIEENLYSMTQHGFARDMDFEIVDKGDTFVTYKLTDNESTLKKYPYSFELIINYTLNDNSIEVEWIVKNTDSKDIFFSIGGHPAFNLPFYKQNDFSKHYLEFKSKNDVEKINLNGSFTDDIIPIGKLKNLQLNPEVFKNDALIYTNIDEVSICNNDGSKYVTISMEDFPLVGIWTPYYSETNSTAPFLCIEPWYGLADSINSNKIYKDKKFINKLSKGKVFTASYNINIHLEHHHHHH” was “soluble”; that for “MMTGLTLLSCSTENDEFKKELPPTEQPSEPTGALLERFSIDQLPAKTIYALGESIDLTGLKVTGEYDDGKQRSVNVAPKQISGFSSSVPVDKQEVTITIEGKQKSFTIQVAPVRVENGVLTEVLKGYDEIILPNSVKSIPKNAFNGSKINKVTLNEGLKSIGDMAFFNSTIQEVIFPSTLEQLEENIFYYCYHLKKADLSRTKLTKLPASTFVYAGVEEVLLPATLTEIDAQAFLKTSQLKTIEIPENVRTIGLEAFRESSITTVKLPNGVTNIAQRAFYYCPELTEVTTYGTVFNDDPEAMIHPYCLEGCPQLTRFEIPQSIRILGQGLLGGNRKVTQLTIPANVTQINFSAFNNTGIKEVKVEGITPPQVFEKIWYGFPDDITVIRVPAESVEKYKTAAGWQDYTNKIQASLEHHHHHH” was “soluble”.
The value for “MSLIKIGVIADDFTGATDIASFLVENGLPTVQINGVPTGKMPEAIDALVISLKTRSCPVVEATQQSLAALSWLQQQGCKQIYFKYCSTFDSTAKGNIGPVTDALMDALDTPFTVFSPALPVNGRTVYQGYLFVMNQLLAESGMRHHPVNPMTDSYLPRLVEAQSTGRCGVVSAHVFEQGVDAVRQELARLQQEGYRYAVLDALTEHHLEIQGEALRDAPLVTGGSGLAIGLARQWAQENGNQARKAGRPLAGRGVVLSGSCSQMTNRQVAHYRQIAPAREVDVARCLSIETLAAYAHELAEWVLGQESVLAPLVFATASTDALAAIQQQYGAQKASQAVETLFSQLAARLAAEGVTRFIVAGGETSGVVTQSLGIKGFHIGPTISPACREGHHHHHH” was “not soluble”; that for “AIASKREDEGCARKRRTEAGQRSEDCMNPNSVVISAFKVFQQELDTRYDKYERLVKISRDVTIESKRTIFLLHRVASVPDVEEILNEAEVKLDGVRQKIGQIAEELRGEDLHQFHRAFTPGIQEYVEAVSFHHFIRHRSLISLEEINARLVFIRDNNKAVGEGTFSSPCVLTFQITPTDYLLGVADLTGELMRMCISSVGNGDMDTPFQLSGFLRQIHDGFSLIGNTGPYEVSKKLHALRQSLGKVEDACYTLRVRGSEIPKHMLADVFSSRAAHIDPDDAMA” was “soluble”.
As to “LAGLALAATLLATGKRPVPDQLAGYHETTLSVGHRDVPVSLHIWYPAAQDGTAELVGQNALFYGQYVLRDAKPAPGAHPVVVFSHGSGGNANNHGWLATELARQGMIVVAPNHPGTMSRDSDPHRTPHIWERARDLHAILDSLETNPPLGMQPDMDRVASAGFSLGGFSALSIAGVRVSKAAFIDYCDRHAGEFDCGWMQAASVDFAAIDPAAYEADYRDPRIKATVSIDPALPQAMTGDSLTAATLPILLVSLGQGEEVPPATRVDAMARQMPQARLVETPGAWHFSFLSECSTLGWIIIGLMGEENICSDIGMRDRGVLHEELKAVISTFLS”, the “soluble on expression in E. coli” value is “not soluble”.
The value for “MGSDKIHHHHHHMKELENYYGRLFTKYQLTAKEREIAEKVPSITKKNNCFRCGTTFKEENKLPNDAYYCRACLLLGRVRSDEKLYHFPQKDFPITKCLKWKGQLTDWQQRISDGLVANVENNRATLVHAVTGAGKTEMIYHTVASVIDKGGAVCLASPRIDVCIELYKRLQNDFSVPISLLHGESEPYFRTPLVVATTHQLLKFYQAFDLVLIDEVDAFPYADNPMLYQAADNAVKEAGVQVFLTATSTDELDKKVRTGKLSRLSLPRRFHGNPLVVPQKVWFSKFDDTLKKNRLVPKLKKAIEEQRKSGFPLLIFVPEISKGQEFTKIMKKTFPEETIGFVSSQTENRLEIVEGFRKREITVLISTTILERGVTFPCVDVFVVQANHYLYTASSLVQIAGRVGRSIERPTGLLQFYHEGSTGAIEKAIAEIKQMNKEAGYV” was “not soluble”; that for “MSTTFAARLNRLFDTVYPPGRGPHTSAEVIAALKAEGITMSAPYLSQLRSGNRTNPSGATMAALANFFRIKAAYFTDDEYYEKLDKELQWLCTMRDDGVRRIAQRAHGLPSAAQQKVLDRIDELRRAEGIDA” was “soluble”.
